In patent US20220195418:

Target: T7 RNAP PACE variant L2-108.2 (mutations only in figure) (bacteriophage T7) (UniProt P00573)
Experiment: cell_activity
Details: lacZ reporter; relative to starting RNAP on T7 promoter

Sequence	activity [%]
AATTAACCCTCACTAAA (double strand) [T3 promoter]	270
TAATACGACTCACTATA (double strand) [T7 promoter]	100
